According to US20170067880A1 (Genentech, published 2017):

Columns and labels:
[1] = biological target: T1, E. coli expressed N-terminal Unizyme tagged SdrD, incubated with S. aureus lysate (Staphylococcus aureus (USA300), UniProt Q2FJ78 36-1347, modified by incubation with cleared lysate of delta-Pan Sdr mutant Newman S. aureus; modification not identified); assay: Western blot of NiNta-captured E. coli protein after incubation with S. aureus lysate
T1 construct: mature; Made in E. coli 58F3, purified, captured on NiNta resin, then incubated with S. aureus lysate for 1 hr at 37 C; also called E. coli expressed Sdr protein SdrD; not shown: N-terminal Unizyme tag (ST239 vector, Genentech)
T1 sequence (Q2FJ78 36-1347): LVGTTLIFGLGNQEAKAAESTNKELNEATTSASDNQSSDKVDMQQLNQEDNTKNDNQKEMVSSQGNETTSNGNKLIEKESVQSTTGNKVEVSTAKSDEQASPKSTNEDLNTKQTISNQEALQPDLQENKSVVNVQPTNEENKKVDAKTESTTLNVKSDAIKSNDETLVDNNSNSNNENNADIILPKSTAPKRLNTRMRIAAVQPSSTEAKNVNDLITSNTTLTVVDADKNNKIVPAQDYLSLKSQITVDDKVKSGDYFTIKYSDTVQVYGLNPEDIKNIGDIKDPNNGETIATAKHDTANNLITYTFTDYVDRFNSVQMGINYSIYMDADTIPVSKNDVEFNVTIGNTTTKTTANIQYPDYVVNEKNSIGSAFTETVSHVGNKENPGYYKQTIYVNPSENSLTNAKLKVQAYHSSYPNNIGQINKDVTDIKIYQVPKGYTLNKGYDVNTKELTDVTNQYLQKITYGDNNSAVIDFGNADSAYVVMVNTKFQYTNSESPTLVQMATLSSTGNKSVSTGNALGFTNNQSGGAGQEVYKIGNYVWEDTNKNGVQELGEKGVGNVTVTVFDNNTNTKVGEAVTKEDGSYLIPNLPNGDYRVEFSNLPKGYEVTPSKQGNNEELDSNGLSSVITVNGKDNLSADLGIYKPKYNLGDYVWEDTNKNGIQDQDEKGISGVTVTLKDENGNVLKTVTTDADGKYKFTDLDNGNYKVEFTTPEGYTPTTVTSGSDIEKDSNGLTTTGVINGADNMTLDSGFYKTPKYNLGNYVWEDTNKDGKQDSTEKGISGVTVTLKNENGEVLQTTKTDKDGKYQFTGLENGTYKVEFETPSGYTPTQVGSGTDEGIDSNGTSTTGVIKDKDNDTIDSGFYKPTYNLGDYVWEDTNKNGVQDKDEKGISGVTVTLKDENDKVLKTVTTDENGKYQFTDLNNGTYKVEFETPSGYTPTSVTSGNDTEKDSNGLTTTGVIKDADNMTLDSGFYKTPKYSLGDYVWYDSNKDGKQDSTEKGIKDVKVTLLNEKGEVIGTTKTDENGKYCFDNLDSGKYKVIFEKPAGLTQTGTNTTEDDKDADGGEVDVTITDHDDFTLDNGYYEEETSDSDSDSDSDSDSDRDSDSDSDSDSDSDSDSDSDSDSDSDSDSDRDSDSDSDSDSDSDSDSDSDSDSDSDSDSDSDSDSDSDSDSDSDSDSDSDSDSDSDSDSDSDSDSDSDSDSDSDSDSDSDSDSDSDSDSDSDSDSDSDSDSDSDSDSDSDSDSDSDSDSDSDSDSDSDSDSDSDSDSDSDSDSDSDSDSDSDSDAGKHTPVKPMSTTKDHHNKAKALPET

[2] = biological target: T2, E. coli expressed N-terminal Unizyme tagged SdrC, incubated with S. aureus lysate (Staphylococcus aureus (USA300), UniProt Q2FJ79 51-913, modified by incubation with cleared lysate of delta-Pan Sdr mutant Newman S. aureus; modification not identified); assay: as above
T2 construct: mature; Made in E. coli 58F3, purified, captured on NiNta resin, then incubated with S. aureus lysate for 1 hr at 37 C; also called E. coli expressed Sdr protein SdrC; not shown: N-terminal Unizyme tag (ST239 vector, Genentech)
T2 sequence (Q2FJ79 51-913): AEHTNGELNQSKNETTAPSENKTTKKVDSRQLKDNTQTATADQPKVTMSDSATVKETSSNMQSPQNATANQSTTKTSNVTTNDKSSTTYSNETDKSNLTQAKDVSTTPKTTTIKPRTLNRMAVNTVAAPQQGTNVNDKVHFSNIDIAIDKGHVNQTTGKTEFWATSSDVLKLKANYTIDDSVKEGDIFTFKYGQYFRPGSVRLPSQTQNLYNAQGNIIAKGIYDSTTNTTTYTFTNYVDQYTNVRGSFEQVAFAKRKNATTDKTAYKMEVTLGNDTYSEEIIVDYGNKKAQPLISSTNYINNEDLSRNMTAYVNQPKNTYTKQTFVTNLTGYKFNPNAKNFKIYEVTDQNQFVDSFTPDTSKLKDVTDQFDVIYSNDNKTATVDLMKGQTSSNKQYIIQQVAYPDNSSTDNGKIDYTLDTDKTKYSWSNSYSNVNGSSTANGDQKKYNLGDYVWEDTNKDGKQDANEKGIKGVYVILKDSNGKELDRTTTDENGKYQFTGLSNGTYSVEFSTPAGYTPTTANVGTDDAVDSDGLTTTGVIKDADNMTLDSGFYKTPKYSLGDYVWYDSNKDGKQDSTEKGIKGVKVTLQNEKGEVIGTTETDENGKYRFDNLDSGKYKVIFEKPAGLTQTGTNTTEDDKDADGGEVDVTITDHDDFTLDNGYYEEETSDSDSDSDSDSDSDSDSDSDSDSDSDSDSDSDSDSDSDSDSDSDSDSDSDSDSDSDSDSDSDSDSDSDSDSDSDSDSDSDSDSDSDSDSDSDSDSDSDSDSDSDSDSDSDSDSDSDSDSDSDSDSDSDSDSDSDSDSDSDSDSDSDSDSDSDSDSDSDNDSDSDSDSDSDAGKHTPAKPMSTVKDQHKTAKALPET

[3] = biological target: T3, E. coli expressed N-terminal Unizyme tagged SdrE, incubated with S. aureus lysate (Staphylococcus aureus (USA300), UniProt Q2FJ77 53-1120, modified by incubation with cleared lysate of delta-Pan Sdr mutant Newman S. aureus; modification not identified); assay: as above
T3 construct: mature; Made in E. coli 58F3, purified, captured on NiNta resin, then incubated with S. aureus lysate for 1 hr at 37 C; also called E. coli expressed Sdr protein SdrE; not shown: N-terminal Unizyme tag (ST239 vector, Genentech)
T3 sequence (Q2FJ77 53-1120): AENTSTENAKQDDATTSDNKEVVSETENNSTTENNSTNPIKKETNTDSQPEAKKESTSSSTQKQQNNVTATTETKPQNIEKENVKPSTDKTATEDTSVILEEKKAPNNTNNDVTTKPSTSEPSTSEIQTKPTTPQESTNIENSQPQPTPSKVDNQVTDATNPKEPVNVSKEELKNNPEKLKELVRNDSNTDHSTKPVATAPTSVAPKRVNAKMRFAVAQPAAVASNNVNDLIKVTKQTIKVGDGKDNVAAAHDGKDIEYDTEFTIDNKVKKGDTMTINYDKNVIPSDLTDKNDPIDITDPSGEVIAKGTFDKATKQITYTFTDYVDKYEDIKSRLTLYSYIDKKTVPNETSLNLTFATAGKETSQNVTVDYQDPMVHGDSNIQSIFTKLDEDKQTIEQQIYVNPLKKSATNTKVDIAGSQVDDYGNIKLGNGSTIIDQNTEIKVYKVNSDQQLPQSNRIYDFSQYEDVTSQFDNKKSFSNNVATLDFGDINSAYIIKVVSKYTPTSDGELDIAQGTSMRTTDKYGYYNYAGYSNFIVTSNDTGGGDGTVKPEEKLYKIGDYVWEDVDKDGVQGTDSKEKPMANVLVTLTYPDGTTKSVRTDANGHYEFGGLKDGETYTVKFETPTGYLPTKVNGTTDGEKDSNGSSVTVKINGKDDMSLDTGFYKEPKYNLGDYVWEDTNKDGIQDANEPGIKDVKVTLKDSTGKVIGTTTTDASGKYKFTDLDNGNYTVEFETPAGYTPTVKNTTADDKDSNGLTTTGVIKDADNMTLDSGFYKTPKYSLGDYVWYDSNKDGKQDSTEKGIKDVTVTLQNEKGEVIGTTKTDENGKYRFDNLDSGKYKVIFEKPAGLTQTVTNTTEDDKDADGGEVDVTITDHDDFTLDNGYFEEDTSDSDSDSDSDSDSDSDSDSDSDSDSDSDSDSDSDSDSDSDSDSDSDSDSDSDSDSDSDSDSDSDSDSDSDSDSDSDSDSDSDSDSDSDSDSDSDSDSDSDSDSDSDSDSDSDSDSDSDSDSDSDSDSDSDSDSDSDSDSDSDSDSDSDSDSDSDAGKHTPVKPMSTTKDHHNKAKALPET

[4] = biological target: T4, MBP-SDS with C-terminal His tag, expressed in S. aureus (UniProt P0AEX9 27-396 = MBP); assay: Western blot of MBP fusion constructs expressed in S. aureus
T4 construct: mature; One of the small SD peptide constructs, expressed in S. aureus RN4220 delta sortase; not shown: C-terminal His tag

[5] = biological target: T5, MBP-SD with C-terminal His tag, expressed in S. aureus (UniProt P0AEX9 27-396 = MBP); assay: as above
T5 construct: mature; One of the small SD peptide constructs, expressed in S. aureus RN4220 delta sortase; not shown: C-terminal His tag

[6] = biological target: T6, MBP-DSD with C-terminal His tag, expressed in S. aureus (UniProt P0AEX9 27-396 = MBP); assay: as above
T6 construct: mature; One of the small SD peptide constructs, expressed in S. aureus RN4220 delta sortase; not shown: C-terminal His tag

B1: antibody F1 (antibody, V domains shown)
VH: EVQLLESGGGLVQPGGSLRLSCAASGFTLSRFAMSWVRQAPGRGLEWVASINNGNNPYYARSVQYRFTVSRDVSQNTVSLQMNNLRAEDSATYFCAKDHPSSGWPTFDSWGPGTLVTVSS
VL: DIQLTQSPSALPASVGDRVSITCRASENVGDWLAWYRQKPGKAPNLLIYKTSILESGVPSRFSGSGSGTEFTLTISSLQPDDFATYYCQHYIRFPYTFGQGTKLEIKR
notes: also called rF1; recombinant F1
- binding result [1]: binds
- binding result [2]: binds
- binding result [3]: binds
- binding result [4]: no binding
- binding result [5]: no binding
- binding result [6]: no binding
